“And” between values parts separate entries of the source, which are not always exact repeats. Identical values can stand only once.
B1: KB001 mouse Fab VL T24K (Fab, V domains shown)
VH: EVQLKQSGPGLVAPSQSLSITCTVSGFSLSIYSVHWVRQPPGKGLEWLGMIWGGGSSDYNSALKSRLSISKDNSKSQVFLKMNSLQTDDTAMYYCARNGNFYAMDYWGQGTSVTVSS
VL: QIVLTQSPAIMSASLGERVTMTCKASSSVSSSFLHWYQQKPGSSPQLWIYSTSNLASGVPARFSGSGSGTSYSLTISSMEAEDAATYYCHQYHHSPYIYTFGGGTKLEIK
B2: KB001 mouse Fab VL S31Y (Fab, V domains shown)
VH: EVQLKQSGPGLVAPSQSLSITCTVSGFSLSIYSVHWVRQPPGKGLEWLGMIWGGGSSDYNSALKSRLSISKDNSKSQVFLKMNSLQTDDTAMYYCARNGNFYAMDYWGQGTSVTVSS
VL: QIVLTQSPAIMSASLGERVTMTCTASSSVSYSFLHWYQQKPGSSPQLWIYSTSNLASGVPARFSGSGSGTSYSLTISSMEAEDAATYYCHQYHHSPYIYTFGGGTKLEIK
B3: KB001 mouse Fab VL S26N (Fab, V domains shown)
VH: EVQLKQSGPGLVAPSQSLSITCTVSGFSLSIYSVHWVRQPPGKGLEWLGMIWGGGSSDYNSALKSRLSISKDNSKSQVFLKMNSLQTDDTAMYYCARNGNFYAMDYWGQGTSVTVSS
VL: QIVLTQSPAIMSASLGERVTMTCTANSSVSSSFLHWYQQKPGSSPQLWIYSTSNLASGVPARFSGSGSGTSYSLTISSMEAEDAATYYCHQYHHSPYIYTFGGGTKLEIK
B4: KB001 mouse Fab VL S31F (Fab, V domains shown)
VH: EVQLKQSGPGLVAPSQSLSITCTVSGFSLSIYSVHWVRQPPGKGLEWLGMIWGGGSSDYNSALKSRLSISKDNSKSQVFLKMNSLQTDDTAMYYCARNGNFYAMDYWGQGTSVTVSS
VL: QIVLTQSPAIMSASLGERVTMTCTASSSVSFSFLHWYQQKPGSSPQLWIYSTSNLASGVPARFSGSGSGTSYSLTISSMEAEDAATYYCHQYHHSPYIYTFGGGTKLEIK
B5: KB001 mouse Fab VL T24E (Fab, V domains shown)
VH: EVQLKQSGPGLVAPSQSLSITCTVSGFSLSIYSVHWVRQPPGKGLEWLGMIWGGGSSDYNSALKSRLSISKDNSKSQVFLKMNSLQTDDTAMYYCARNGNFYAMDYWGQGTSVTVSS
VL: QIVLTQSPAIMSASLGERVTMTCEASSSVSSSFLHWYQQKPGSSPQLWIYSTSNLASGVPARFSGSGSGTSYSLTISSMEAEDAATYYCHQYHHSPYIYTFGGGTKLEIK
B6: KB001 mouse Fab VL A25F (Fab, V domains shown)
VH: EVQLKQSGPGLVAPSQSLSITCTVSGFSLSIYSVHWVRQPPGKGLEWLGMIWGGGSSDYNSALKSRLSISKDNSKSQVFLKMNSLQTDDTAMYYCARNGNFYAMDYWGQGTSVTVSS
VL: QIVLTQSPAIMSASLGERVTMTCTFSSSVSSSFLHWYQQKPGSSPQLWIYSTSNLASGVPARFSGSGSGTSYSLTISSMEAEDAATYYCHQYHHSPYIYTFGGGTKLEIK
B7: KB001 mouse Fab VL S30G (Fab, V domains shown)
VH: EVQLKQSGPGLVAPSQSLSITCTVSGFSLSIYSVHWVRQPPGKGLEWLGMIWGGGSSDYNSALKSRLSISKDNSKSQVFLKMNSLQTDDTAMYYCARNGNFYAMDYWGQGTSVTVSS
VL: QIVLTQSPAIMSASLGERVTMTCTASSSVGSSFLHWYQQKPGSSPQLWIYSTSNLASGVPARFSGSGSGTSYSLTISSMEAEDAATYYCHQYHHSPYIYTFGGGTKLEIK
B8: KB001 mouse Fab VL S30F (Fab, V domains shown)
VH: EVQLKQSGPGLVAPSQSLSITCTVSGFSLSIYSVHWVRQPPGKGLEWLGMIWGGGSSDYNSALKSRLSISKDNSKSQVFLKMNSLQTDDTAMYYCARNGNFYAMDYWGQGTSVTVSS
VL: QIVLTQSPAIMSASLGERVTMTCTASSSVFSSFLHWYQQKPGSSPQLWIYSTSNLASGVPARFSGSGSGTSYSLTISSMEAEDAATYYCHQYHHSPYIYTFGGGTKLEIK
B9: KB001 mouse Fab VL S28G (Fab, V domains shown)
VH: EVQLKQSGPGLVAPSQSLSITCTVSGFSLSIYSVHWVRQPPGKGLEWLGMIWGGGSSDYNSALKSRLSISKDNSKSQVFLKMNSLQTDDTAMYYCARNGNFYAMDYWGQGTSVTVSS
VL: QIVLTQSPAIMSASLGERVTMTCTASSGVSSSFLHWYQQKPGSSPQLWIYSTSNLASGVPARFSGSGSGTSYSLTISSMEAEDAATYYCHQYHHSPYIYTFGGGTKLEIK
B10: KB001 mouse Fab VL S31E (Fab, V domains shown)
VH: EVQLKQSGPGLVAPSQSLSITCTVSGFSLSIYSVHWVRQPPGKGLEWLGMIWGGGSSDYNSALKSRLSISKDNSKSQVFLKMNSLQTDDTAMYYCARNGNFYAMDYWGQGTSVTVSS
VL: QIVLTQSPAIMSASLGERVTMTCTASSSVSESFLHWYQQKPGSSPQLWIYSTSNLASGVPARFSGSGSGTSYSLTISSMEAEDAATYYCHQYHHSPYIYTFGGGTKLEIK
B11: KB001 mouse Fab VL S28W (Fab, V domains shown)
VH: EVQLKQSGPGLVAPSQSLSITCTVSGFSLSIYSVHWVRQPPGKGLEWLGMIWGGGSSDYNSALKSRLSISKDNSKSQVFLKMNSLQTDDTAMYYCARNGNFYAMDYWGQGTSVTVSS
VL: QIVLTQSPAIMSASLGERVTMTCTASSWVSSSFLHWYQQKPGSSPQLWIYSTSNLASGVPARFSGSGSGTSYSLTISSMEAEDAATYYCHQYHHSPYIYTFGGGTKLEIK
B12: KB001 mouse Fab VL S28K (Fab, V domains shown)
VH: EVQLKQSGPGLVAPSQSLSITCTVSGFSLSIYSVHWVRQPPGKGLEWLGMIWGGGSSDYNSALKSRLSISKDNSKSQVFLKMNSLQTDDTAMYYCARNGNFYAMDYWGQGTSVTVSS
VL: QIVLTQSPAIMSASLGERVTMTCTASSKVSSSFLHWYQQKPGSSPQLWIYSTSNLASGVPARFSGSGSGTSYSLTISSMEAEDAATYYCHQYHHSPYIYTFGGGTKLEIK
B13: KB001 mouse Fab VL S26D (Fab, V domains shown)
VH: EVQLKQSGPGLVAPSQSLSITCTVSGFSLSIYSVHWVRQPPGKGLEWLGMIWGGGSSDYNSALKSRLSISKDNSKSQVFLKMNSLQTDDTAMYYCARNGNFYAMDYWGQGTSVTVSS
VL: QIVLTQSPAIMSASLGERVTMTCTADSSVSSSFLHWYQQKPGSSPQLWIYSTSNLASGVPARFSGSGSGTSYSLTISSMEAEDAATYYCHQYHHSPYIYTFGGGTKLEIK
B14: KB001 mouse Fab VL S28V (Fab, V domains shown)
VH: EVQLKQSGPGLVAPSQSLSITCTVSGFSLSIYSVHWVRQPPGKGLEWLGMIWGGGSSDYNSALKSRLSISKDNSKSQVFLKMNSLQTDDTAMYYCARNGNFYAMDYWGQGTSVTVSS
VL: QIVLTQSPAIMSASLGERVTMTCTASSVVSSSFLHWYQQKPGSSPQLWIYSTSNLASGVPARFSGSGSGTSYSLTISSMEAEDAATYYCHQYHHSPYIYTFGGGTKLEIK
B15: KB001 mouse Fab VL S31T (Fab, V domains shown)
VH: EVQLKQSGPGLVAPSQSLSITCTVSGFSLSIYSVHWVRQPPGKGLEWLGMIWGGGSSDYNSALKSRLSISKDNSKSQVFLKMNSLQTDDTAMYYCARNGNFYAMDYWGQGTSVTVSS
VL: QIVLTQSPAIMSASLGERVTMTCTASSSVSTSFLHWYQQKPGSSPQLWIYSTSNLASGVPARFSGSGSGTSYSLTISSMEAEDAATYYCHQYHHSPYIYTFGGGTKLEIK
B16: KB001 mouse Fab VL A25T (Fab, V domains shown)
VH: EVQLKQSGPGLVAPSQSLSITCTVSGFSLSIYSVHWVRQPPGKGLEWLGMIWGGGSSDYNSALKSRLSISKDNSKSQVFLKMNSLQTDDTAMYYCARNGNFYAMDYWGQGTSVTVSS
VL: QIVLTQSPAIMSASLGERVTMTCTTSSSVSSSFLHWYQQKPGSSPQLWIYSTSNLASGVPARFSGSGSGTSYSLTISSMEAEDAATYYCHQYHHSPYIYTFGGGTKLEIK
B17: KB001 mouse Fab VL S51G (Fab, V domains shown)
VH: EVQLKQSGPGLVAPSQSLSITCTVSGFSLSIYSVHWVRQPPGKGLEWLGMIWGGGSSDYNSALKSRLSISKDNSKSQVFLKMNSLQTDDTAMYYCARNGNFYAMDYWGQGTSVTVSS
VL: QIVLTQSPAIMSASLGERVTMTCTASSSVSSSFLHWYQQKPGSSPQLWIYGTSNLASGVPARFSGSGSGTSYSLTISSMEAEDAATYYCHQYHHSPYIYTFGGGTKLEIK
B18: KB001 mouse Fab VL S28P (Fab, V domains shown)
VH: EVQLKQSGPGLVAPSQSLSITCTVSGFSLSIYSVHWVRQPPGKGLEWLGMIWGGGSSDYNSALKSRLSISKDNSKSQVFLKMNSLQTDDTAMYYCARNGNFYAMDYWGQGTSVTVSS
VL: QIVLTQSPAIMSASLGERVTMTCTASSPVSSSFLHWYQQKPGSSPQLWIYSTSNLASGVPARFSGSGSGTSYSLTISSMEAEDAATYYCHQYHHSPYIYTFGGGTKLEIK
B19: KB001 mouse Fab VL T24H (Fab, V domains shown)
VH: EVQLKQSGPGLVAPSQSLSITCTVSGFSLSIYSVHWVRQPPGKGLEWLGMIWGGGSSDYNSALKSRLSISKDNSKSQVFLKMNSLQTDDTAMYYCARNGNFYAMDYWGQGTSVTVSS
VL: QIVLTQSPAIMSASLGERVTMTCHASSSVSSSFLHWYQQKPGSSPQLWIYSTSNLASGVPARFSGSGSGTSYSLTISSMEAEDAATYYCHQYHHSPYIYTFGGGTKLEIK
B20: KB001 mouse Fab VL S31P (Fab, V domains shown)
VH: EVQLKQSGPGLVAPSQSLSITCTVSGFSLSIYSVHWVRQPPGKGLEWLGMIWGGGSSDYNSALKSRLSISKDNSKSQVFLKMNSLQTDDTAMYYCARNGNFYAMDYWGQGTSVTVSS
VL: QIVLTQSPAIMSASLGERVTMTCTASSSVSPSFLHWYQQKPGSSPQLWIYSTSNLASGVPARFSGSGSGTSYSLTISSMEAEDAATYYCHQYHHSPYIYTFGGGTKLEIK
B21: KB001 mouse Fab VL S27K (Fab, V domains shown)
VH: EVQLKQSGPGLVAPSQSLSITCTVSGFSLSIYSVHWVRQPPGKGLEWLGMIWGGGSSDYNSALKSRLSISKDNSKSQVFLKMNSLQTDDTAMYYCARNGNFYAMDYWGQGTSVTVSS
VL: QIVLTQSPAIMSASLGERVTMTCTASKSVSSSFLHWYQQKPGSSPQLWIYSTSNLASGVPARFSGSGSGTSYSLTISSMEAEDAATYYCHQYHHSPYIYTFGGGTKLEIK

biological target: HRgpA-6H (Porphyromonas gingivalis) (UniProt P28784); assay: ELISA, coated HRgpA-6H
Sequence of UniProt P28784 (P28784 228-860 limits assumed): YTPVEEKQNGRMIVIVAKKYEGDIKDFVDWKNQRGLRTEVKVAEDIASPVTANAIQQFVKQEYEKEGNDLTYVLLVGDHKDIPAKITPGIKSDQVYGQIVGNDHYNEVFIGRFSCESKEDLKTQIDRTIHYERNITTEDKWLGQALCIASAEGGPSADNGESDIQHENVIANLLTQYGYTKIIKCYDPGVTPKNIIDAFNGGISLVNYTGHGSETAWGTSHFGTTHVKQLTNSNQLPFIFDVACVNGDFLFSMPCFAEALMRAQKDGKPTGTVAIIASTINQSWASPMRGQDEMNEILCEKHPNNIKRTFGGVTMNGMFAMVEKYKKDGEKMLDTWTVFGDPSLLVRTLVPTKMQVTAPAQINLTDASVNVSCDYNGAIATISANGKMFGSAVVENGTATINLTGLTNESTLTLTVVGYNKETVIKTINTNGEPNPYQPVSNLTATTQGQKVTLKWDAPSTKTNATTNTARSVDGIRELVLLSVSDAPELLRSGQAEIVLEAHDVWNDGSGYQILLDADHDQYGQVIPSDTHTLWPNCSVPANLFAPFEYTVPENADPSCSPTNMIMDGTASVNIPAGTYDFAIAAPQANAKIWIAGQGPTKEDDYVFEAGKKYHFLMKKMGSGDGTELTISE

Row | Binder | OD450 nm | Ratio OD(Variant)/OD(WT)
1 | B1 | 0.797 and 0.734 | 1.04 and 0.954
2 | B2 | 0.849 | 1
3 | B3 | 0.823 and 0.749 | 1.05 and 0.957
4 | B4 | 0.854 and 0.688 and 0.693 | 1.01 and 0.814 and 0.82
5 | B5 | 0.852 and 0.81 | 1.11 and 1.05
6 | B6 | 0.818 and 0.827 and 0.775 | 1.04 and 1.06 and 0.99
7 | B7 | 0.916 and 0.858 | 1.06 and 0.995
8 | B8 | 0.911 | 1.06
9 | B9 | 0.818 | 1.09
10 | B10 | 0.903 and 0.798 | 1.07 and 0.944
11 | B11 | 0.817 and 0.745 | 1.09 and 0.993
12 | B12 | 0.801 | 1.07
13 | B13 | 0.821 | 1.05
14 | B14 | 0.786 and 0.731 and 0.717 | 1.05 and 0.974 and 0.955
15 | B15 | 0.859 and 0.74 and 0.782 | 1.02 and 0.876 and 0.925
16 | B16 | 0.823 and 0.801 | 1.05 and 1.02
17 | B17 | 0.915 and 0.777 and 0.851 | 1.05 and 0.888 and 0.973
18 | B18 | 0.808 and 0.726 | 1.08 and 0.967
19 | B19 | 0.795 | 1.03
20 | B20 | 0.87 and 0.875 and 0.856 | 1.03 and 1.04 and 1.01
21 | B21 | 0.783 and 0.745 and 0.697 | 1.04 and 0.993 and 0.929

From patent publication US20240400654A1
